Experimental data from PMC2957469.

Columns and labels:
[1] = molecular target: JCV VP1 pentamer (amino acids 22-289) R265A, His-tagged (JC polyomavirus (JCV), Mad-1 strain); test: SEC
[2] = molecular target: JCV VP1 pentamer (amino acids 22-289, Mad-1 strain), His-tagged, wild type (JC polyomavirus (JCV), Mad-1 strain); test: SEC
[3] = molecular target: JCV VP1 pentamer (amino acids 22-289) L54Y, His-tagged (JC polyomavirus (JCV), Mad-1 strain); test: SEC
[4] = molecular target: JCV VP1 pentamer (amino acids 22-289) S266N/S268N, His-tagged (JC polyomavirus (JCV), Mad-1 strain); test: SEC
[5] = molecular target: JCV VP1 pentamer (amino acids 22-289) A126Y, His-tagged (JC polyomavirus (JCV), Mad-1 strain); test: SEC
[6] = molecular target: JCV VP1 pentamer (amino acids 22-289) S266A/S268A, His-tagged (JC polyomavirus (JCV), Mad-1 strain); test: SEC
[7] = molecular target: JCV VP1 pentamer (amino acids 22-289) N123A, His-tagged (JC polyomavirus (JCV), Mad-1 strain); test: SEC
[8] = molecular target: JCV VP1 pentamer (amino acids 22-289, Mad-1 strain), His-tag removed, as crystallized (JC polyomavirus (JCV), Mad-1 strain); test: crystal structure
[9] = molecular target: JCV VP1 pentamer (amino acids 22-289) A126Q, His-tagged (JC polyomavirus (JCV), Mad-1 strain); test: SEC

JCV VP1 pentamer (amino acids 22-289) R265A, His-tagged (domain or fragment)
stoichiometry N [1]: 5

JCV VP1 pentamer (amino acids 22-289, Mad-1 strain), His-tagged, wild type (domain or fragment)
stoichiometry N [2]: 5

JCV VP1 pentamer (amino acids 22-289) L54Y, His-tagged (domain or fragment)
stoichiometry N [3]: 5

JCV VP1 pentamer (amino acids 22-289) S266N/S268N, His-tagged (domain or fragment)
stoichiometry N [4]: 5

JCV VP1 pentamer (amino acids 22-289) A126Y, His-tagged (domain or fragment)
stoichiometry N [5]: 5

JCV VP1 pentamer (amino acids 22-289) S266A/S268A, His-tagged (domain or fragment)
stoichiometry N [6]: 5

JCV VP1 pentamer (amino acids 22-289) N123A, His-tagged (domain or fragment)
stoichiometry N [7]: 5

JCV VP1 pentamer (amino acids 22-289, Mad-1 strain), His-tag removed, as crystallized (domain or fragment)
stoichiometry N [8]: 5

JCV VP1 pentamer (amino acids 22-289) A126Q, His-tagged (domain or fragment)
stoichiometry N [9]: 5
